Binding signal (% Cy3-positive cells) data for one sequence are collected here from patent US9605266.

The target of the data set is C-C chemokine receptor type 5 (CCR5) (Homo sapiens) (UniProt P51681). Kind of data set: flow. The settings on record: 2'-F pyrimidines (2'-F-C, 2'-F-U), negative control.
C-C chemokine receptor type 5 (CCR5) (Homo sapiens), sequence (P51681 whole entry): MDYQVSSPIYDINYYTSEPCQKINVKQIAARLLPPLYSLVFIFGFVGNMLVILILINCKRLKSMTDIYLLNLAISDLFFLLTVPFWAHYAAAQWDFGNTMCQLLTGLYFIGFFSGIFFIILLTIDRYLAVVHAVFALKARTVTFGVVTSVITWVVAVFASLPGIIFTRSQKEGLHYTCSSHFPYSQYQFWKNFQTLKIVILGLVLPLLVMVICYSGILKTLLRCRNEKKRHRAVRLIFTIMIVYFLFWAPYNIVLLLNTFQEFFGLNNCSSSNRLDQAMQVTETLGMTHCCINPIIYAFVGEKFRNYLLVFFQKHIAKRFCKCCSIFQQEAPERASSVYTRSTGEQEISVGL

On to “GGGAGGACGAUGCGGNNNNNNNNNNNNNNNNNNNNCAGACGACUCGCCCGA [0-RNA pool (starting library)]”, for which the binding signal (% Cy3-positive cells) (untreated 0.076%) was 0.808 and the binding signal (% Cy3-positive cells) (untreated 0.191%) came out at 7.63.
